Reference: the RNAGym collection of RNA variant scans (doi:10.7554/elife.80360)

B1: Hairpin Ribozyme (parent)
chain: GUCCUCUUUCACGUGCGCGUGAAAGAGAGAAGUGAACCAGAGAAACACACGUUGUGGUAUAUUACCUGGUA

Variants of: B1
Test: self-cleavage, relative activity (ratio to wild type); higher = more cleavage; co-transcriptional

Variant	self-cleavage
A24U G27A	0.334
G25U U55A	0.216
G25U U55G	0.195
A23U G56C	0.174
G25C C66G	0.217
G25A G40U	0.153
A24U	0.868
A24G	0.87
A24C	0.894
A26C C48A	0.045
A24C A44G	0.104
G25C C37G	0.225
G25A A64U	0.173
G25A A64C	0.23
A24U G25A	0.219
A24U G25C	0.385
A24C G69C	0.218
A24C G69A	0.484
A24G A39C	0.384
A24G C50U	0.371
A24G C50G	0.136
A26C A30U	0.165
A26C A30G	0.0971
G25C C50A	0.214

Variant	self-cleavage
G25A G42A	0.0699
G25A U63G	0.173
A24G A49C	0.163
A24C U33C	0.16
A24G G51C	0.829
A24G G27C	0.171
G25A A30U	0.234
G25A A30G	0.188
G25U U60C	0.885
G25U U60G	0.288
G25A U58C	0.581
G25A A61C	0.196
G25U A30U	0.0827
G25U A30G	0.124
G25U C66U	0.315
A24G U33A	0.118
G25C U67G	0.152
G25C U67A	0.136
G25A C50G	0.14
A24U U62G	0.131
G25A G57A	0.205
A24C A64U	0.172
G25A U53C	0.659
G25A U53A	0.472

Variant	self-cleavage
A24U C50G	0.341
A24U U33C	0.0916
G25U G51U	0.671
G25U G51A	0.613
A24C U70C	0.778
A24C U70G	0.666
A24U A43U	0.121
G25A C37U	0.494
G25U C46U	0.157
G25U C46A	0.205
A24G A31U	0.111
A24G A31C	0.041
A24U A39C	0.5
G25C C38G	0.15
A26C	0.708
A24C G27U	0.284
G25C G56A	0.149
G25A C65G	0.215
G25A C65A	0.615
A24U A26C	0.575
A24U A26G	0.79
A24U A26U	0.443
G25U G57A	0.145
A26C A59U	0.245

Variant	self-cleavage
A24U A49U	0.216
A24U A49C	0.104
G25C A28C	0.214
G25U G32C	0.187
G25U G32U	0.0897
G25A A31C	0.128
A24G G40C	0.188
A24G G40A	0.338
A24U A61U	0.187
G25U C38G	0.0734
A24U A36G	0.943
G25C U60C	0.673
G25C U33C	0.319
G25C U33G	0.197
A24G C46U	0.0984
A24C C38G	0.186
A24C C38U	0.5
A23U G34C	1.12
G25A U55G	0.159
A24G U53A	0.822
A23U U33G	0.158
A24G G42C	0.275
A24G G42A	0.111
A24G G42U	0.289

Variant	self-cleavage
A24G G29U	0.0932
A24G G29C	0.174
A24G A41C	0.743
G25U U62C	0.123
G25U U53G	0.376
G25U U53C	0.689
A24G G68C	0.232
A24G G68U	0.273
A24C G57A	0.24
A24U A30G	0.164
A24U G32U	0.128
A26C A28G	0.785
A24C G56U	0.231
A24C G56C	0.115
A24C G56A	0.1
G25C A35G	0.578
G25C A45U	0.205
G25C A45G	0.0878
G25C A45C	0.123
A26C A44U	0.193
A24C U58C	1.11
G25U U33G	0.168
G25A A45U	0.111
G25U A44U	0.113

Variant	self-cleavage
G25U A44G	0.165
G25U A44C	0.229
A23U G25A	0.186
A23U G25U	0.216
A23U G25C	0.132
A24C A36C	0.631
A24C C65U	0.402
A24C C65A	0.922
A24C C65G	0.296
A23U C50G	0.239
A23U U70G	0.647
A23U U70A	0.729
A24C C46A	0.134
A24C C46G	0.105
A24C C46U	0.142
A24G A47U	0.0569
A24U A64G	0.492
A26C A45G	0.136
A26C A45U	0.182
G25A U62C	0.224
G25A U62A	0.121
A24U A59G	0.183
A24C C48A	0.172
A24G U67A	0.204

Variant	self-cleavage
G25U G42C	0.22
G25U G42U	0.183
A26C A43C	0.159
A24U C38A	0.154
G25C A31U	0.143
G25C A31C	0.168
G25C U62G	0.0816
G25C U62C	0.252
G25A C48G	0.0903
G25A A35C	0.738
A24U C37A	0.304
A24C U60A	0.76
A24C U60G	0.609
A24C U60C	0.972
A24C A59G	0.0535
A24G A44U	0.0876
A24G A44C	0.0644
A24G A30G	0.0908
A24G A45C	0.235
A24G A45U	0.145
G25A A44U	0.179
G25A G69C	0.228
A23U G68U	0.197
